Experiment: soluble on expression in E. coli; label from the status in PepcDB or PDB records

Soluble on expression in E. coli, not soluble:
MGSDKIHHHHHHMRIMPINSFENYPMSWKPSIDKAEKPIYKALAGQLEQDILNGVLLPGTKLPPQRELADYLDLNVSTISKAFKVCELKGLLSATVGSGTFVSYDALSNAYLLEDTKPTHLIEMGAILPDHASYEPLLYQLKNMVHEEDYEKWFSYGRAGESLWQKDAAVKLIQRGGFETSVDHILFANGGQNAIAATLASLCKPGDRIGVDHHTYPGLKTVASLLSVQIVPIKSENDEMSPESLEYACKNENIKGLYLIPDYHNPTTSFMSVENRRMVADIVKKYNLFVIEDASYHLLNKNPLPALASFAPQQVIHIASLSKSLAPGLRLAYVAVPRQYKEPISKALYNLNITVSPLLAELTARTIVSNQFEVLIESHREQTIRRNQLVNRYVAGYTCLGVETGIFRWLLLPGKMSGAEFEELAARLGVQVYAAERFVVGNSCPERAVRVSVCAPKTLEELEQGLMILRRLLDDLT
MGSDKIHHHHHHMRIQQLRYLEKIATTGSINEAAKQLFISQPSLSQAMKELEKEYQVQLFYRHKTGITLTDAGREFINYSRSVLDQVNLLNEHFGQGTVRKRIFSVSAQHYAFVVNAFVELVKEIGGDTYQFTLRETETANVLNDVQTLKSELGVIYLNKFNQTVLSRLIADKDLSFVPLFEARPHVFVGRDNPLTHKQDLTLDDLRDYPYLSYEQGDTSSFYFAEEILSTLPHKKHIRISDRATIFNLMVGLNGYTISSGIISSELNDEKIVAIPLKVDDAMTLGYLRHKKIELSATAQRYLTLLKQHIQGYGFDVFNDN
MGSDKIHHHHHHMRKISIVIPVYNTEKYLKLSVDSVLSQSYQDWELILVDDGSKDGSGAICDKYASEDSRIKVYHTVNQGVTAARGYGVEQSTGEWICFLDADDTLADDALQVMLGKSADCDIVIGNKRIVSGNDVTEEWMNQDDRQLQAVEFLDGLIRNKISQYITGRIFRRILFDNGTICIPRELIMAEDFIMNVQLGNKAKKIAVIRDMVYGYHVYGESVSHTFRTNLEYESRFCDCLFSALKTGGYYEEVKEAFTFQKVRALKSAFMAQQGRVNLRHPFLQEVRKEAKSIGLSRGWKLFLYLLPLKYIGYIFFRSLNK
MGSDKIHHHHHHMRLTILGSSGSVPAPGNPASGYLLTSPDAPAVIMDMGPGVLAAVQEIQDPADAHVIFSHLHTDHCADFASLMVWRRFHPTLAAKSRNLLFGPEDTPNRLGRLSSDEPDGVDDMSDTFAFDAWEERKPELIDNFTVTPFRVVHPIETYALRVEEHRTGASITYSGDSAYTEALIDAARNVDIFLCEATWGTSCDDKAPGMHMCGQDAGRIAAAAGVKKLIITHVPPWIDAEATVAAAAEHFDGPIELARSGMVIEF
MGSDKIHHHHHHMRNMNIEEIRNSFLSGRPAVLIDEERENEADLVFPAEIATPKVVNFMLSAKGLLCLALDMEEGIKRGFFKLPNNGGETNFLIPVDYKDVFTGITAEERALTARKVAEGLGIENFRYPGHLPLLGGLGLNKRKGHTEASLELVEMAGFKRYALIIEILDDKGYSHNLDYAFHFAKEHDLPLIRIREIWKEFVRRKQLIHVYSKAKLPTKYGDFEIYSFKNDLDFKDHVALVKKPFKGTPLVRVHSKCLTGDTLGSLKCDCGSQLENALRTISQEGGVLIYLDQEGRGIGLREKIRAYEFQDRGLDTVEANKALGFAPDERTYEVAFQILRALGIEKIKLLTNNPSKVKALRELGIEIEDVIPLPGEINRYNFFYLKTKVEKLGHKIPGVEV
MGSDKIHHHHHHMRNSNLSKKPFIITIASTKGGSAKSTNAANIGAFCADHGLKTLLIDTDTQPTLSAYFALNYVAPGGIHEFLTYQDVEPSHIISKTTLSNLDLIQSNDPTNNVSQMLRNAPDGAIRFSFLLKKLKGYDVIIVDTRGTRDITVDMSVLAADLLFCPILPHILSAKEFIRGTMGMYQELQTFEAFGFSLPPLKAVPNCVDHTNDVKFVLGHLKQLFEQNLSADKTLLDFHIPNKVAYREAATYSLPVYRHSKAEYVVIQALCMHLLPQFAHQFEQGLSGHLGGHNV
MGSDKIHHHHHHMRRFLILFVLLVAGCTGVDPNNPQYRAFVAVAEDVEPVGEAQCRSKDPERNCDFQIQLDLNPSAPANAFQTVDRSGRPVVIFTRSMLDSFRNPDEMAFVMGHEMAHHILEHLDQQRINAVKGAVFLGELVSLEGGTPEQVANAQYVGAVVGSRSYSKAFELEADALGTLITYQAGYRPSVGVKFFEEIPDPGDVFLGTHPANPDRIRIVQRTIRKYGLN
MGSDKIHHHHHHMRRLFAIGEALIDFIPNVTHSKLKDVEQFSRQVGGAPCNVAATVSKLGGKSEMITQLGNDAFGDIIVETIEQLGVGTQYIKRTNKANTALAFVSLQDDGQRDFSFYRKPSADMLYQPENIDDIQVFQDDILHFCSVDLIESDMKYAHEKMIEKFESVDGTIVFDPNVRLPLWEDKLECQRTINAFIPKAHIVKISDEELLFITGKRNEDEAIQSLFRGRVNVVIYTQGAQGATIYTKDDYRIHHEGYQVQAIDTTGAGDAFIGAIIYCILESRYSECKDLFKEKGKDILAFSNRVAALTTTKHGAIESLPTKEDIKDYN
MGSDKIHHHHHHMRTFQYANANPSANVSPMGRTSLATSAAKARGPLNGLIAERMRQLNLSTVKDFADYAGIGRTSIHDLVRGRTTTSGTWTKPSFDTLTKLAVALDKPTHELLYLIDPEAPGANLMFDVQQVPVYIAGQVGAGPQQLWESSDVVYVERQFAENRDLIAFTVVGDSMAGGRHPIHDGDVVIVDQRVGGEVNFPVVARLKDDGHVVKRCGPAASSTAPTRTSWTLTPQSLPLTVSPTWWDASSG
MGSDKIHHHHHHMRTIEDDAALKILADVIKIPSVNDHELTVAKYLQDLLAKYDISAKIHPITGDRANLVAEIGHGQPVLAVSGHMDVVAAGDLAAWDTDPFTLVEKSGQLFGRGVTDMKAGLVALVVAMINIQQQGGPKHGTIRLLATMGEEVGEAGSAAFYQQGAMQDAAGLLIAEPSTVYGTAAEQKGSCDLKLTSKGKAVHSSTPERGYNALVPLIKLLNEANDYFETIPAGEMGPVRFNIDVLNGGDQVNSLPDLATALVNVRTIPEYDNDQVTQKLADLIAAYNQQGADIKMTAIMNESPIATTADNRLVKLVQAIGKPYAGRDVVVASSPGITDASNLAKRQPADFPFAVYGPGNMTQHQVNESLPKQMFYDFIAIYQQLFTRFLAE
MGSDKIHHHHHHMRTIWTPTLENFSGSKYEQLANAIGDAITRGELAPGSKLPPQRRLADALGVTLGTVTRAYTKAIYRGWVEARVGDGTYVRMAEPKSTGPLDLATCQQAVTDQAAFLGEVMSRMGRDPVRLAGLLDYHTANLEAQQETVLTFLARSGVDDFGGKLVFTHGAQQGLFAALAAICEPGDWVLHEAWCYPGLNRAAEALSLNLCGVSLLDDGLNLDELAACIDKHKPKAIYLTPNSQNPGCIGYSGAQRQRILALARAHDIIIIEDDVNYCTSQEWSAPIWQLAADAQSVVYLSSLSKRFAGGIRFGFMLLPARLQPRVNRIIHAHCWMVSPLLIEIGCELIRSGGIHQHRDAWIASLQQRFLTMAESLDLEAKSRGLNGRLTLPEGFRASNVIAALAAKGILARSLADFGGPANGIRFSLGRIPRGEEDEVFDRIQSTLTDVLNQGIAVV
MGSDKIHHHHHHMRVGVIGVGCSRFGRRDDAVIQELAYEAVKEALDDAGITQDEVELSVVGSVNTRGYELMPAVPVNEYCGFAGKGPLRVEAACATGAAAVYTAYTSIASGMADVAIAIGVEKMTEVDTATSLAIGGRAGNYLWEFHQYGTTFPAYYAMHATAHMAKYGTTEEQMAKVAVKAHRNAARNPKAHFQKEIAVEDVLNSRYITYPLKLYDCSPISDGSAAAILASEEKIRELGIDDVVWIDSVGYASDTSNMTNRESFVGLKATVLAREMAYRKAGIEEPVKQLDFATVHDCFTIAEIMAYEDLGFCRKGEGGKLVESGETELGGKLPVNTFGGLKAKGHPLAATGVAMVYEIVKQLRGEAGELQVELRNNRALLHNVGGTGHFAFVMIFGR
MGSDKIHHHHHHMRVSQRVVMSMTTPIDQFKGKQLDIINWWRRYPDKQTIIADGAVRSGKTFAMSISYVLWSMIVFDREQFGIAGKTIGSLRRNVIRPLKQTLQQVGFSVVDRRSENMLEISLDGRTNLYYLFGGKDESSQDLIQGITLAGMFFDEAALMPQSFVNQATARVSVTGGKYWFNMNPEGPYHWFKTDWIDQADDKRALRLHFVMTDNPSLSDEVIDRYEHMYSGVFYQRYILGQWVLADGIVYDNFDKDEMVSNPSQQPSRYYVSVDYGTQNPTVFLLWGKCGSVWYCLKEYYYDGRHSSRQKTDDEYARDFSQFVGDIRCEVIVDPSAASFIVKLRERRYRVIKADNDVLNGIRETQTAMNSGEIKFTPGLTNLFKEFASYVWDDKASQKGEDKVVKAHDHAMDAMRYFVMQVIKRRNAAHTFKNTSKYF
MGSDKIHHHHHHMRWGGASPIEATVRDLSLSRIYMRVTGDSLSTNAQDCPSSEILRIAVVSSPRSGNSWIRSTLAGALSMQEIAIHNYLDAPAVLPQRCFLQIHWYREPNFQAWLRENQFRVLTVARHPLDVLVSALHYIRYEPGTSRWLEGNVKLPGELANASPSSPEFLEYALGMGAEDLLSITYQWWNDPEVLRLRYEDAVANPEVVLGNQIAALGGSAQDVVPWLARLSIDKMRATPNRHGWQGSPGLWRRLIVPQDAIRIYRRHRRIFDTLGYTIRPYFLTRASAYRNWMERL
MGSDKIHHHHHHMRYNRTETLLQLALELSASHSGLSLTDIEQMFGVGRRTAQRMRDAIERVFPQLEEVPQPDRTKRWRLPNRVLGRVSDLNIDDIMAMETAAEILERDNRPDAAASVRRAGAKVRASLRPDDARRIEPDLEALMQAEGIAMRPGPRPKVRPELVETLRHAIMGCREIRVQYRRRYSTNEHSRVVQPYGLLYGQRHYLLAFVPEENEVRSYSFPNIIGVEETGNSFVRDPAFSLTEYAARSFGLYQEEPYEVMWRFSPDAATDAKEFLFHPSQTHESQPDGSLIVRFKAGGLLEMAWHLYQWGDAVEVLEPEKLRAIHERSKVSWVARP
MGSDKIHHHHHHMSAEDYKNLPVTVEKPIPVVYDLGNLAAFDSNVLDKNDLDSSNARREEKIKSLTRDNVQLLINQLLSLPMKTTTESVGGTGGQSSVMTLLQLPDPTTDLPREKPLPKAKAMTKWEKFAAKKGIKPKERAGKMIYDEASGEWVPKWGYKGANKKLDDQWLVEVDDKVKGTDNELIDPRTLNRAERKRLVKKNEKQQRRNMKNAL
MGSDKIHHHHHHMSANTQSMIFTVYGDYIRHYGNQIWVGSLIRLLKEFGHNEQAVRVAVSRMVKQGWLTSQKQGTKSFYSLTPRGVERMEEAARRIYKSTPHVWDGKWRTLMYTIPEDKRQIRDELRKELSWSGFGNLSNGVWISPNPLEKEAERLIEAYDIKAYIDFFVGEYHGPQQDQSLVERAFPLDELQERYEQFIAEYSRRYIVHQSRIQLGEMDEEQCFVERTTLVHEYRKFLFTDPGLPQELLPDEWSGHHAALLFEQYYRLLAEPASRFFESIFRETHDVTQKSADYDASEHPLFAER
MGSDKIHHHHHHMSAPPLCVTVCGGGRTGHLNAILFAQRPGVRVKLLTRNHHIAARQDAVLTGLLPDGATLTASAGMVTDDPAVALRDADIVIITVPAHARPSLLREIVAHLPEGKAVYVGAIPGFCGFDWLAGALLAQRPNAVIWGMKDVPHTAFALDPGVSVRMGGVKQRLYVGCHAREQRAARQALLSHLNRLYDASVELLDSYLEITLTPGNPIMHSAVIYGLIGPYGQWHGRALPTPLCWWTDCPELSAYFLERADEESQRLCQAVARRLGVDLSSVKPLRQEIVDAYGDQIQDPSTMLSVLRTNRAYADIEAPLVPTSGGYLVDTSSRAFHEDVAYGLATLVEMARRLGVDTPHLREIFEWNVTYMGGLRGSALDYFPEFWPR
